According to article PMC6863705 (Protein Science : A Publication of the Protein Society, 2019):

T1: Receiver domain of Ssk1 (Ssk1-R2), wild type (S. cerevisiae, UniProt Q07084 495-712)
T1 sequence: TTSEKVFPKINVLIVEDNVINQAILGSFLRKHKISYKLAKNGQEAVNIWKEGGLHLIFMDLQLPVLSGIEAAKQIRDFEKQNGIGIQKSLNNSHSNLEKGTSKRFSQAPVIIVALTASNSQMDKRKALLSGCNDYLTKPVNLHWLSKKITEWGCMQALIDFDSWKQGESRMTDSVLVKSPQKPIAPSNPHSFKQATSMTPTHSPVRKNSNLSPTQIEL

T2: Ssk1-R2-R524A (S. cerevisiae, UniProt Q07084 495-712, R524A)
T2 sequence: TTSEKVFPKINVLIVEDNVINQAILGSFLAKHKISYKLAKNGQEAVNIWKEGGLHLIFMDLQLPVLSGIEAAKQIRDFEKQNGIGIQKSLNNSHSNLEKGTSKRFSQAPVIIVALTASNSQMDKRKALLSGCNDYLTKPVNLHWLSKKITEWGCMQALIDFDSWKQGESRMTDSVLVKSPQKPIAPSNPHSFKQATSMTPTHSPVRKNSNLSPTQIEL

T3: Ssk1-R2-K525A (S. cerevisiae, UniProt Q07084 495-712, K525A)
T3 sequence: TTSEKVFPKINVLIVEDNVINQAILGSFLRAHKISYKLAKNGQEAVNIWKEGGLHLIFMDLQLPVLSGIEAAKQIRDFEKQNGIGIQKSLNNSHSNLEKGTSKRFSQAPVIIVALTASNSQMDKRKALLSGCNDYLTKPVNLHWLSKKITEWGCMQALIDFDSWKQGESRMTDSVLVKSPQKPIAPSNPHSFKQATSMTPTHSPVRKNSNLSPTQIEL

T4: Ssk1-R2-W638A (S. cerevisiae, UniProt Q07084 495-712, W638A)
T4 sequence: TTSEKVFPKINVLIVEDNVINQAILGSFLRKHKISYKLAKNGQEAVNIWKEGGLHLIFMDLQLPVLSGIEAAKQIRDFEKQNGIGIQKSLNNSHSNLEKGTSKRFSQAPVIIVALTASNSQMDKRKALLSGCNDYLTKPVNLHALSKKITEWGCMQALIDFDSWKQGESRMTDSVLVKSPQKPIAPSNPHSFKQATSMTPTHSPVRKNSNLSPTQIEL

T5: Selenomethionine derivative of Ssk1-R2-W638A (S. cerevisiae, UniProt Q07084 495-712, W638A, selenomethionine incorporated)
T5 sequence: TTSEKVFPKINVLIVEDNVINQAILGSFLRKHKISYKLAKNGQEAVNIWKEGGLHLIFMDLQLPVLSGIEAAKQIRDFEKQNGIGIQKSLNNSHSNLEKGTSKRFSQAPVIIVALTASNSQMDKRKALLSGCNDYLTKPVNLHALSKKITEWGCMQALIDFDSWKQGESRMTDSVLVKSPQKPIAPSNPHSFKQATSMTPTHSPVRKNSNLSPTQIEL


Key:
[1] = biological target: T1, Receiver domain of Ssk1 (Ssk1-R2), wild …; assay: other fluorescence titration
Ssk1-R2-R524A = biological target: T2, Ssk1-R2-R524A; assay: other fluorescence titration
Ssk1-R2-K525A = biological target: T3, Ssk1-R2-K525A; assay: other fluorescence titration
Ssk1-R2-W638A = biological target: T4, Ssk1-R2-W638A; assay: other fluorescence titration
[2] = biological target: T5, Selenomethionine derivative of …; assay: crystal structure

| Kd [1] | Kd (Ssk1-R2-R524A) | Kd (Ssk1-R2-K525A) | Kd (Ssk1-R2-W638A) | binding result [2] | Binder |
| --- | --- | --- | --- | --- | --- |
| 23.7 nM | 918 nM | 640 nM | 219 nM |  | Fluoresceinated Ypd1-T12C variant (Ypd1-T12C~F) (natural protein, S. cerevisiae, UniProt Q07688 1-167, looked up, 5-iodoacetamidofluorescein (5-IAF) on the cysteine at 12 (T12C)) MSTIPSEIINWCILNEIISMDDDDSDFSKGLIIQFIDQAQTTFAQMQRQLDGEKNLTELDNLGHFLKGSSAALGLQRIAWVCERIQNLGRKMEHFFPNKTELVNTLSDKSIINGINIDEDDEEIKIQVDDKDENSIYLILIAKALNQSRLEFKLARIELSKYYNTNL |
|  |  |  |  | binds | Ypd1 (histidine phosphotransfer protein) from S. cerevisiae (natural protein, UniProt Q07688 1-167, looked up) MSTIPSEIINWTILNEIISMDDDDSDFSKGLIIQFIDQAQTTFAQMQRQLDGEKNLTELDNLGHFLKGSSAALGLQRIAWVCERIQNLGRKMEHFFPNKTELVNTLSDKSIINGINIDEDDEEIKIQVDDKDENSIYLILIAKALNQSRLEFKLARIELSKYYNTNL |
